T1: monkey MSLN full-length protein (NCBI: XP_028696439.1) expressed on HEK293T-monkey MSLN cells (monkey)
T1 construct: Whole encoded precursor
T1 chain: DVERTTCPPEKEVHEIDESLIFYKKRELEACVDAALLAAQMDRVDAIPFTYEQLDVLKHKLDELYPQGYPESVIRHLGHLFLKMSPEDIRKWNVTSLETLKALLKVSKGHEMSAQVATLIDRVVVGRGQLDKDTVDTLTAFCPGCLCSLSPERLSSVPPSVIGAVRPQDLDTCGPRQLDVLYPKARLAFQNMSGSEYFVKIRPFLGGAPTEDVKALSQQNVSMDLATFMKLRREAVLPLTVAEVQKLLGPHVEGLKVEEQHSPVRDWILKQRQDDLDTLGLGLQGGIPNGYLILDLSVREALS


Experiments:
[1] = target: T2, human MSLN-hFc protein (Acro, Cat. No. MSN-H5253) (human, UniProt Q13421 296-580); assay: ELISA on coated antigen, antibody 10 nM
T2 construct: the method names the coated protein as human MSLN-hFc (Acro); also called human MSLN full-length protein

[2] = target: T2, human MSLN-hFc protein (Acro, Cat. No. …); assay: ELISA on coated antigen, antibody 0.1 nM
[3] = target: T2, human MSLN-hFc protein (Acro, Cat. No. …); assay: ELISA on coated antigen, antibody 1 nM
[4] = target: T2, human MSLN-hFc protein (Acro, Cat. No. …); assay: ELISA on coated antigen, antibody 100 nM
human MSLN-R3 protein [5] = target: T3, human MSLN-R3 protein (human, UniProt Q13421 487-598); assay: ELISA on coated antigen, antibody 10 nM
T3 construct: also called hMSLN-R3

human MSLN-R3 protein [6] = target: T3, human MSLN-R3 protein; assay: ELISA on coated antigen, antibody 0.001 nM
[7] = target: T2, human MSLN-hFc protein (Acro, Cat. No. …); assay: ELISA on coated antigen, antibody 0.0001 nM
human MSLN-R3 protein [8] = target: T3, human MSLN-R3 protein; assay: ELISA on coated antigen, antibody 1 nM
human MSLN-R3 protein [9] = target: T3, human MSLN-R3 protein; assay: ELISA on coated antigen, antibody 0.1 nM
human MSLN-R3 protein [10] = target: T3, human MSLN-R3 protein; assay: ELISA on coated antigen, antibody 0.0001 nM
human MSLN-R3 protein [11] = target: T3, human MSLN-R3 protein; assay: ELISA on coated antigen, antibody 100 nM
[12] = target: T2, human MSLN-hFc protein (Acro, Cat. No. …); assay: ELISA on coated antigen, antibody 0.001 nM
[13] = target: T2, human MSLN-hFc protein (Acro, Cat. No. …); assay: ELISA on coated antigen, antibody 0.01 nM
human MSLN-R3 protein [14] = target: T3, human MSLN-R3 protein; assay: ELISA on coated antigen, antibody 0.01 nM
[15] = target: T4, human MSLN protein endogenously expressed on OVCAR3 tumor cells (human, UniProt Q13421 296-598); assay: FACS on OVCAR3 cells
T4 construct: whole, on cells; Endogenous target on OVCAR3 cells; kept apart from the recombinant full-length construct; also called mesothelin

[16] = target: T5, human MSLN-R3 protein (Met487-Ser606 of NCBI AAH09272.1) expressed on HEK293T-hMSLN-R3 cells (human, UniProt Q13421 487-606); assay: FACS on HEK293T-hMSLN-R3 cells
T5 construct: also called Region3

[17] = target: T6, human MSLN full-length protein (NCBI: AAH09272.1) expressed on HEK293T-hMSLN-B8 cells (human, UniProt Q13421 296-598); assay: FACS on HEK293T-hMSLN-B8 cells
T6 construct: Whole encoded precursor

[18] = target: T1, monkey MSLN full-length protein (NCBI: …); assay: FACS on HEK293T-monkey MSLN cells

T3 sequence (Q13421 495-606, form in doubt): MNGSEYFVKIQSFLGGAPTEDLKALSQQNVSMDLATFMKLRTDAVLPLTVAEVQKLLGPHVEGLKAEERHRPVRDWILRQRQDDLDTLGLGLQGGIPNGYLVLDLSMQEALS
T5 sequence (Q13421 495-614): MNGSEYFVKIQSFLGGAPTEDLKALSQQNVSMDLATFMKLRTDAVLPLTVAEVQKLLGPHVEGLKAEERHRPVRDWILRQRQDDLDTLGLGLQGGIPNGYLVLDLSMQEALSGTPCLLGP
T6 sequence (Q13421 other isoform, or with tags, fused parts or gaps limits assumed): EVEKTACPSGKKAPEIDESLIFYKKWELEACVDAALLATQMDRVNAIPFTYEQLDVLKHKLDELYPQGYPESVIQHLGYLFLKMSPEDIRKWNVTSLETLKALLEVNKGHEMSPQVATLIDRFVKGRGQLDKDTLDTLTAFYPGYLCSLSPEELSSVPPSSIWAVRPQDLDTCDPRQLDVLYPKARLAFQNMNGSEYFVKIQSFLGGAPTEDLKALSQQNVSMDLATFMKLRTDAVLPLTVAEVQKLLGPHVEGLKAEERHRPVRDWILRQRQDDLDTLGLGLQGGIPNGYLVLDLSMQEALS
T4 sequence (Q13421 other isoform, or with tags, fused parts or gaps): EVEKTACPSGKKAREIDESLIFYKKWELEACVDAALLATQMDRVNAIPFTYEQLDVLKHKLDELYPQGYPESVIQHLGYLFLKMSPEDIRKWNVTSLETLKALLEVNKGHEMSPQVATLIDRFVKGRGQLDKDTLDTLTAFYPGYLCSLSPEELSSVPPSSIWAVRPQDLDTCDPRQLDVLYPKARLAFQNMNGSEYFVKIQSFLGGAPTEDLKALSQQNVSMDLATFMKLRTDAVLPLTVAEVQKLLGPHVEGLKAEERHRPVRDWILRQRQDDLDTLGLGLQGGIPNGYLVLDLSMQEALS
T2 sequence (Q13421 other isoform, or with tags, fused parts or gaps limits assumed): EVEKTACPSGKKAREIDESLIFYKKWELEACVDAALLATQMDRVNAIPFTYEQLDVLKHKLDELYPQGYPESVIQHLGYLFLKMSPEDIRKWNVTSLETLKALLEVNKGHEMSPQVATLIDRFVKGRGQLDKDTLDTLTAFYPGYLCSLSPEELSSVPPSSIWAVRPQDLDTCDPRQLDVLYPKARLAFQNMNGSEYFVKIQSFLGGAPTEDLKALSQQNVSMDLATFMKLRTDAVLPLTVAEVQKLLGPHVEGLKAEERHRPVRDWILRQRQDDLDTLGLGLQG

Row | OD450 [1] [OD450] | OD450 [2] [OD450] | OD450 [3] [OD450] | OD450 [4] [OD450] | OD450 (human MSLN-R3 protein [5]) [OD450] | OD450 (human MSLN-R3 protein [6]) [OD450] | OD450 [7] [OD450] | OD450 (human MSLN-R3 protein [8]) [OD450] | OD450 (human MSLN-R3 protein [9]) [OD450] | OD450 (human MSLN-R3 protein [10]) [OD450] | OD450 (human MSLN-R3 protein [11]) [OD450] | OD450 [12] [OD450] | OD450 [13] [OD450] | OD450 (human MSLN-R3 protein [14]) [OD450] | Maximum mean fluorescence intensity [15] | EC50 [16] [nM] | Maximum mean fluorescence intensity [16] | EC50 [17] [nM] | Maximum mean fluorescence intensity [17] | Maximum mean fluorescence intensity [18] | Binder | other results
1 | 2.36 | 0.08 | 0.45 | 2.96 | 1.74 | 0.04 | 0.05 | 0.53 | 0.07 | 0.04 | 1.98 | 0.05 | 0.05 | 0.04 |  |  |  |  |  |  | F7.33.24-H6 (scFv, not shown: small tags and cut ends, also called S009-F7.33.24 humanized antibody VH1a + VL3) scFv: EVQLVQSGAEVKKPGASVKVSCKASGYTFTSYWMHWVRQAPGQRLEWMGNVNPSSGGSNYNEKFKNRVTITVDKSASTAYMELSSLRSEDTAVYYCAPHYIGSRPGFAYWGQGTLVTVSSGGGGSGGGGSGGGGSDIVMTQTPLSLSVTPGQPASISCKASQNVGTNIAWYQQKPGQSPQALIYSASYRYSGVPDRFSGSGSGTDFTLKISRVEAEDVGVYYCQQYNSYPLTFGGGTKVEIK | 
2 | 2.28 | 0.1 | 0.58 | 2.65 | 1.95 | 0.04 | 0.05 | 0.65 | 0.09 | 0.04 | 2.04 | 0.04 | 0.04 | 0.04 |  |  |  |  |  |  | F7.33.24-H12 (scFv, not shown: small tags and cut ends, also called S009-F7.33.24 humanized antibody VH2a + VL3) scFv: EVQLVQSGAEVKKPGASVKVSCKASGYTFTSYWMHWVRQAPGQGLEWMGNVNPSNAGSNYNEKFKNRVTITVDKSASTAYMELSSLRSEDTAVYYCAPHYIGSRPGFAYWGQGTLVTVSSGGGGSGGGGSGGGGSDIVMTQTPLSLSVTPGQPASISCKASQNVGTNIAWYQQKPGQSPQALIYSASYRYSGVPDRFSGSGSGTDFTLKISRVEAEDVGVYYCQQYNSYPLTFGGGTKVEIK | 
3 | 2.04 | 0.09 | 0.48 | 2.7 | 1.92 | 0.04 | 0.05 | 0.63 | 0.09 | 0.05 | 2.16 | 0.05 | 0.05 | 0.05 |  |  |  |  |  |  | F7.33.24-H8 (scFv, not shown: small tags and cut ends, also called S009-F7.33.24 humanized antibody VH2 + VL2) scFv: EVQLVQSGAEVKKPGASVKVSCKASGYTFTSYWMHWVRQAPGQGLEWMGNVNPSNGGSNYNEKFKNRVTITVDKSASTAYMELSSLRSEDTAVYYCAPHYIGSRPGFAYWGQGTLVTVSSGGGGSGGGGSGGGGSDIVMTQTPLSLSVTPGQPASISCKASQNVGTNIAWYLQKPGQSPQALIYSASYRYSGVPDRFSGSGSGTDFTLKISRVEAEDVGVYYCQQYNSYPLTFGGGTKVEIK | 
4 | 2.18 | 0.09 | 0.57 | 2.65 | 1.94 | 0.04 | 0.04 | 0.68 | 0.09 | 0.05 | 2.1 | 0.04 | 0.04 | 0.05 |  |  |  |  |  |  | F7.33.24-H11 (scFv, not shown: small tags and cut ends, also called S009-F7.33.24 humanized antibody VH2a + VL2) scFv: EVQLVQSGAEVKKPGASVKVSCKASGYTFTSYWMHWVRQAPGQGLEWMGNVNPSNAGSNYNEKFKNRVTITVDKSASTAYMELSSLRSEDTAVYYCAPHYIGSRPGFAYWGQGTLVTVSSGGGGSGGGGSGGGGSDIVMTQTPLSLSVTPGQPASISCKASQNVGTNIAWYLQKPGQSPQALIYSASYRYSGVPDRFSGSGSGTDFTLKISRVEAEDVGVYYCQQYNSYPLTFGGGTKVEIK | 
5 | 2.49 | 0.1 | 0.66 | 2.78 | 2.08 | 0.04 | 0.05 | 0.82 | 0.11 | 0.04 | 2.25 | 0.04 | 0.05 | 0.05 |  |  |  |  |  |  | F7.33.24-H9 (scFv, not shown: small tags and cut ends, also called S009-F7.33.24 humanized antibody VH2 + VL3) scFv: EVQLVQSGAEVKKPGASVKVSCKASGYTFTSYWMHWVRQAPGQGLEWMGNVNPSNGGSNYNEKFKNRVTITVDKSASTAYMELSSLRSEDTAVYYCAPHYIGSRPGFAYWGQGTLVTVSSGGGGSGGGGSGGGGSDIVMTQTPLSLSVTPGQPASISCKASQNVGTNIAWYQQKPGQSPQALIYSASYRYSGVPDRFSGSGSGTDFTLKISRVEAEDVGVYYCQQYNSYPLTFGGGTKVEIK | 
6 | 1.63 | 0.06 | 0.27 | 2.58 | 1.78 | 0.04 | 0.04 | 0.71 | 0.09 | 0.04 | 1.92 | 0.26 | 0.21 | 0.04 |  |  |  |  |  |  | F7.33.24 (scFv, not shown: small tags and cut ends, also called S009-F7.33.24 (parental variable regions, in the humanized-antibody ELISA)) scFv: QVQLQQPGTELVKPGASVKLSCKASGYTFTSYWMHWVKQRPGQGLEWIGNVNPSNGGSNYNEKFKNKATLTVDKSSSTADMQLNSLTSEDSAVYYCAPHYIGSRPGFAYWGQGTLVTVSGGGGGSGGGGSGGGGSDIVMTQSQKFMSTSVGDRVSVTCKASQNVGTNIAWYQQKPGQSPKALIYSASYRYSGVPDRFTGSGSGTDFTLTITNVQSEDLAEYFCQQYNSYPLTFGGGTKVEIK | 
7 |  |  |  |  |  |  |  |  |  |  |  |  |  |  | 288 | 0.84 | 4240 | 33.7 | 26400 | 88 | S009-F3.23.1 (antibody, human IgG1, kappa, V domains shown, human-murine chimeric antibody, human IgG1/kappa constant regions) VH: QVQLQQSGADLVRPGASVTLSCKASGYTFTDYEMHWVKQTPVHGLEWIGAIDPETGDTVYNQNFKGKAILTADKSSSTAYMELRSLTSEDSAVYYCTRYGYDWGWGQGTTLTVSS VL: not shown | binding result [18]: no binding
8 |  |  |  |  |  |  |  |  |  |  |  |  |  |  | 3700 | 0.72 | 7920 | 2.25 | 88800 | 7100 | S009-F3.7.3 (antibody, human IgG1, kappa, V domains shown, human-murine chimeric antibody, human IgG1/kappa constant regions) VH: EVNFEESGGGLVQPGGSMKLSCVASGFTFSNYWMNWVRQSPEKGLEWVAQIRLKSDNYATHYAESVKGRFTISRDDFKSSVYLQMNNLRAEDTGIYYCTVGTGGYWGQGTTLTVSS VL: DIVLTQSPASLAMSLGKRATISCRASESVSIVGTNVIHWFQQKPGQPPKLLIYHASNLETGVPARFSGSGSGTDFTLTIDPVEEDDVAIYHCLQSRKIPWTFGGGTKLEIKR | EC50 [15]: 1.94 nM
9 |  |  |  |  |  |  |  |  |  |  |  |  |  |  | 4190 | 0.43 | 8060 | 1.46 | 89800 | 24800 | S009-F3.16.1 (antibody, human IgG1, kappa, V domains shown, human-murine chimeric antibody, human IgG1/kappa constant regions) VH: EVKFEESGGGLVQPGGSMKLSCVASGFTFSNYWMNWVRQSPEKGLEWVAQIRLKSDNYATHYAESVKGRFSISRDDSKSSVYLQMNNLRAEDTGIYYCSVGTGGYWGQGTTLTVSS VL: DIVLTQSPASLALSPGKRATISCRASESVSIIGTDVIHWFQQKPGQPPKLLIYHASNLETGVPARFSGSGSRTDFTLTIDPVEEDDVAIYYCLQSRKIPWTFGGGTKLEIKR | EC50 [15]: 1.61 nM; EC50 [18]: 1.4 nM
